Source: publication PMC4706845

Legend:
[1] = biological target: PIKfyve from pig brain cytosol; test: proteo-liposome recruitment, western blot band quantification; settings: 2 % input bar shown for reference, parent: est. 38, read off a plot
[2] = biological target: Vac14 from pig brain cytosol (UniProt F1S3E8); test: as above; settings: 2 % input bar shown for reference, parent: est. 21, read off a plot
UniProt F1S3E8, sequence (F1S3E8 entry or part of it): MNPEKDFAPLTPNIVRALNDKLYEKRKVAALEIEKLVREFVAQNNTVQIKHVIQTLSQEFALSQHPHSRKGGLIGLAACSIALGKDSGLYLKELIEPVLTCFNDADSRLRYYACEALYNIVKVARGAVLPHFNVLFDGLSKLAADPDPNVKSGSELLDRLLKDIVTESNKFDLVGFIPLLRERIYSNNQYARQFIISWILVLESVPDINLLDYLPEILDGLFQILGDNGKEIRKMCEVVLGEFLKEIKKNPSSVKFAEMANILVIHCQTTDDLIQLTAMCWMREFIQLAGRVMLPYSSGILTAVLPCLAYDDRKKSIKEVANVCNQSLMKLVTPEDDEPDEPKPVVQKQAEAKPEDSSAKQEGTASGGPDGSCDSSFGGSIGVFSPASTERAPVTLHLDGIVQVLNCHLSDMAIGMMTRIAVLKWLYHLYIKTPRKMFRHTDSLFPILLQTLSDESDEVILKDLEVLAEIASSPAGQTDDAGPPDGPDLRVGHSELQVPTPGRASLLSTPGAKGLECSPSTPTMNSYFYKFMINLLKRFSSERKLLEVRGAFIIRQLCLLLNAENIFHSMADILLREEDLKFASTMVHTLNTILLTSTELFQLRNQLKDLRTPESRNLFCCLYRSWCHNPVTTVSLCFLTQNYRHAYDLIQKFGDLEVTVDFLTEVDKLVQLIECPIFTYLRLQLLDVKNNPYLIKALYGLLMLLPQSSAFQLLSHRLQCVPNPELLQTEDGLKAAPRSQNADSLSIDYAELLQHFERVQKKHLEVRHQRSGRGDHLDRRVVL

| response [1] | response [2] | Substance |
| --- | --- | --- |
| 8.5 a.u. | 3.5 a.u. | APP intracellular domain (AICD), full length AICD N36A; P37A |
| 3 a.u. | 0.7 a.u. | APP intracellular domain (AICD), full length AICD T38A; Y39A |
| 2.5 a.u. | 1 a.u. | APP intracellular domain (AICD), full length AICD Y34A; E35A |
